What was measured:
Assay in all cases: co-immunoprecipitation from cell lysates, western blot
[1] = biological target: cIAP1 (UniProt Q13490 1-618)
[2] = biological target: T1, cIAP2 (UniProt Q13489 1-604)
T1 construct: The list of antibodies in the same sentence prints 'cIAP', while the result names 'cIAP2'

[3] = biological target: T2, Bcl-xL (UniProt Q07817 1-233)
T2 construct: also called multidomain antiapoptotic Bcl-xL protein

[4] = biological target: XIAP (UniProt P98170 1-497)
[5] = biological target: T3, Bcl-2 (UniProt P10415 1-239)
T3 construct: also called multidomain antiapoptotic Bcl-2 protein
T3 sequence (P10415 whole entry): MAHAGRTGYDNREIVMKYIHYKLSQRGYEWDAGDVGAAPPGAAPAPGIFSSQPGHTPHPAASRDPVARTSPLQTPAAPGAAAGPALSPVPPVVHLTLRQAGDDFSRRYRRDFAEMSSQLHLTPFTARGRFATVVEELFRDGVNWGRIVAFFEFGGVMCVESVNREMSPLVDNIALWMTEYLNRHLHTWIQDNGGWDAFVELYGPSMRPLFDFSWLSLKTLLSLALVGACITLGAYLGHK

T1 sequence (Q13489 whole entry): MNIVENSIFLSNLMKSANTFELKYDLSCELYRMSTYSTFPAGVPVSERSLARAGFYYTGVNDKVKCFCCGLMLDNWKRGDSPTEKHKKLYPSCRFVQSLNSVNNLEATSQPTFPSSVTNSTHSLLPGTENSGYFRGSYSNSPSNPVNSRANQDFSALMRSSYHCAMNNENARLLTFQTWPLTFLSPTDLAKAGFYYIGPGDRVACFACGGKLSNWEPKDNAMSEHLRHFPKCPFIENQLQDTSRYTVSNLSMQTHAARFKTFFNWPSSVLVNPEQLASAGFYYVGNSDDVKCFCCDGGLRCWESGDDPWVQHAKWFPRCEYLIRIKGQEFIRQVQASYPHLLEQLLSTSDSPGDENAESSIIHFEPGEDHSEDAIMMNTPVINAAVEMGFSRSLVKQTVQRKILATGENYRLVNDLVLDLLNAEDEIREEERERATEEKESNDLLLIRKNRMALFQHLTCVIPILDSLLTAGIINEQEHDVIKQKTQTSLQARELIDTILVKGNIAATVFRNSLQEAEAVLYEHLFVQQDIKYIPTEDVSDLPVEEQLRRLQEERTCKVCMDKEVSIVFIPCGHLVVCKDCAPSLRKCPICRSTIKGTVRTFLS
T2 sequence (Q07817 whole entry): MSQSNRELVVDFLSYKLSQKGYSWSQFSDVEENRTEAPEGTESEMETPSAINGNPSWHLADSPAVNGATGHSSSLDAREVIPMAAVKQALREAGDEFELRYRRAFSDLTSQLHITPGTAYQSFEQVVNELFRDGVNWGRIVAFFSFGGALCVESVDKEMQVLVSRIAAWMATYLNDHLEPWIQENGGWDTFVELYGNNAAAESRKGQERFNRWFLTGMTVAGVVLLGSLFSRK
Sequence of cIAP1 (Q13490 whole entry): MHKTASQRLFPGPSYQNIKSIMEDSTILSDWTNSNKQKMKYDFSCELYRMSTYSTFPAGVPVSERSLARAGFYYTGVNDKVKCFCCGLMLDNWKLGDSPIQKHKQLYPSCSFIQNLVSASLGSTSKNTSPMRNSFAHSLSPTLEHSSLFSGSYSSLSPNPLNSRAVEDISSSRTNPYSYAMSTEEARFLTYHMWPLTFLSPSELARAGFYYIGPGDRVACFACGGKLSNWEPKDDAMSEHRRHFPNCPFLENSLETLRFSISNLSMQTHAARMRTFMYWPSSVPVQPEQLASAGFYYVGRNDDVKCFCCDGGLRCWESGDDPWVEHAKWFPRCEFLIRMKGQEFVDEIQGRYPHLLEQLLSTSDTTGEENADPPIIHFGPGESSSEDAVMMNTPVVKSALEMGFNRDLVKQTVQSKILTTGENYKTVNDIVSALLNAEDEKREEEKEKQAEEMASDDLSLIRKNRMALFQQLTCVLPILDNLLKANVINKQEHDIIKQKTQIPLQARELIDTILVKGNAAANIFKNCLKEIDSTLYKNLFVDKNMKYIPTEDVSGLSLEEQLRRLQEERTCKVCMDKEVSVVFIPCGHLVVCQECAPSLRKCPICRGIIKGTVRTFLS
Sequence of XIAP (P98170 whole entry): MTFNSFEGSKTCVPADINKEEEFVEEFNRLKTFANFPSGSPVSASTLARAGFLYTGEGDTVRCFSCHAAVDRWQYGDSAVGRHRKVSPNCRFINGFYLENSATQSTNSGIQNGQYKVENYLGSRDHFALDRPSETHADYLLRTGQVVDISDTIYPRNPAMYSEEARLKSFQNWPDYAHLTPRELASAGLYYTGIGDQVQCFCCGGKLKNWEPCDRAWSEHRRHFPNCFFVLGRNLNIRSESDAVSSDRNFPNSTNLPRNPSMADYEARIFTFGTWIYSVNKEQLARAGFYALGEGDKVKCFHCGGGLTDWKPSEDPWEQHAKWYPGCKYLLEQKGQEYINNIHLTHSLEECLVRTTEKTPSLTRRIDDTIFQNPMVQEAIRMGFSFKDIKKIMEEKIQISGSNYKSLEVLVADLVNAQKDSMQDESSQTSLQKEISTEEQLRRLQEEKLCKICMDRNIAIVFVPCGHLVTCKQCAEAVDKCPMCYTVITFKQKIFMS

- binding result [1]: no binding
- binding result [2]: no binding
- binding result [3]: no binding
- binding result [4]: no binding
- binding result [5]: no binding
B1: MUC1 C-terminal transmembrane subunit (MUC1-C) (other, UniProt P15941 1098-1255, looked up)
chain: SVVVQLTLAFREGTINVHDVETQFNQYKTEAASRYNLTISDVSVSDVPFPFSAQSGAGVPGWGIALLVLVCVLVALAIVYLIALAVCQCRRKNYGQLDIFPARDTYHPMSEYPTYHTHGRYVPPSSTDRSPYEKVSAGNGGSSLSYTNPAVAATSANL
notes: Endogenous protein immunoprecipitated from MCF7 lysates with an anti-MUC1-C antibody

Reference: patent US20090087437A1 (Dana-Farber, published 2009)
